Legend:
[1] = target: T1, hIGF-1R-Fc mutant SD008 (S257F) (human, UniProt P08069 31-933); assay: SPR, M13-C06 Fab over captured mutant
T1 construct: not shown: C-terminal human IgG1-Fc tag
Description: (§1) After, completion of the receptor-Fc loading step, flow rates were elevated to 5 μl/min. […] At the end of each sensorgram, the flow rate was elevated to 30 μl/min and the chip surface was regenerated by 2×10 μL injections of 0.1 M glycine, pH 2.

[2] = target: T2, hIGF-1R-Fc mutant SD006 (A227K) (human, UniProt P08069 31-933); assay: SPR, M13-C06 Fab over captured mutant
T2 construct: also called SD0006; not shown: C-terminal human IgG1-Fc tag
Description: as §1

[3] = target: T3, hIGF-1R-Fc mutant SD009 (E264K) (human, UniProt P08069 31-933); assay: SPR, M13-C06 Fab over captured mutant
T3 construct: not shown: C-terminal human IgG1-Fc tag
Description: as §1

[4] = target: T4, hIGF-1R-Fc mutant SD016 (D531Q_V532N) (human, UniProt P08069 31-933); assay: SPR, M13-C06 Fab over captured mutant
T4 construct: not shown: C-terminal human IgG1-Fc tag
Description: as §1

[5] = target: T5, hIGF-1R-Fc mutant SD010 (G271D) (human, UniProt P08069 31-933); assay: SPR, M13-C06 Fab over captured mutant
T5 construct: not shown: C-terminal human IgG1-Fc tag
Description: as §1

[6] = target: T6, hIGF-1R-Fc mutant SD005 (A217T) (human, UniProt P08069 31-933); assay: SPR, M13-C06 Fab over captured mutant
T6 construct: not shown: C-terminal human IgG1-Fc tag
Description: as §1

[7] = target: T7, hIGF-1R-Fc mutant SD013 (D405K) (human, UniProt P08069 31-933); assay: SPR, M13-C06 Fab over captured mutant
T7 construct: not shown: C-terminal human IgG1-Fc tag
Description: as §1

[8] = target: T8, hIGF-1R-Fc mutant SD018 (E665A) (human, UniProt P08069 31-933); assay: SPR, M13-C06 Fab over captured mutant
T8 construct: not shown: C-terminal human IgG1-Fc tag
Description: as §1

[9] = target: T9, hIGF-1R-Fc mutant SD017 (I650S) (human, UniProt P08069 31-933); assay: SPR, M13-C06 Fab over captured mutant
T9 construct: not shown: C-terminal human IgG1-Fc tag
Description: as §1

[10] = target: T10, hIGF-1R-Fc mutant SD014 (K412A_A413Q) (human, UniProt P08069 31-933); assay: SPR, M13-C06 Fab over captured mutant
T10 construct: not shown: C-terminal human IgG1-Fc tag
Description: as §1

[11] = target: T11, hIGF-1R-Fc mutant SD007 (N237G) (human, UniProt P08069 31-933); assay: SPR, M13-C06 Fab over captured mutant
T11 construct: not shown: C-terminal human IgG1-Fc tag
Description: as §1

[12] = target: T12, hIGF-1R-Fc mutant SD004 (S210H_A211Q) (human, UniProt P08069 31-933); assay: SPR, M13-C06 Fab over captured mutant
T12 construct: not shown: C-terminal human IgG1-Fc tag
Description: as §1

[13] = target: T13, hIGF-1R-Fc mutant SD019 (E739W, L741F) (human, UniProt P08069 31-933); assay: SPR, M13-C06 Fab over captured mutant
T13 construct: not shown: C-terminal human IgG1-Fc tag
Description: as §1

[14] = target: T14, hIGF-1R-Fc mutant SD012 (E303G) (human, UniProt P08069 31-933); assay: SPR, M13-C06 Fab over captured mutant
T14 construct: not shown: C-terminal human IgG1-Fc tag
Description: as §1

[15] = target: T15, hIGF-1R-Fc mutant SD002 (M156A) (human, UniProt P08069 31-933); assay: SPR, M13-C06 Fab over captured mutant
T15 construct: not shown: C-terminal human IgG1-Fc tag
Description: as §1

[16] = target: T16, hIGF-1R-Fc mutant SD001 (Y28A) (human, UniProt P08069 31-933); assay: SPR, M13-C06 Fab over captured mutant
T16 construct: not shown: C-terminal human IgG1-Fc tag
Description: as §1

[17] = target: T17, hIGF-1R-Fc mutant SD003 (T188F) (human, UniProt P08069 31-933); assay: SPR, M13-C06 Fab over captured mutant
T17 construct: not shown: C-terminal human IgG1-Fc tag
Description: as §1

[18] = target: T18, hIGF-1R-Fc mutant SD011 (G285S_S286T) (human, UniProt P08069 31-933); assay: SPR, M13-C06 Fab over captured mutant
T18 construct: not shown: C-terminal human IgG1-Fc tag
Description: as §1

[19] = target: T19, hIGF-1R-Fc mutant SD102 (E459A, S460A) (human, UniProt P08069 31-933); assay: SPR, Fab over captured mutant
T19 construct: not shown: C-terminal human IgG1-Fc tag

[20] = target: T20, hIGF-1R-Fc mutant SD109 (Y482A, R483W) (human, UniProt P08069 31-933); assay: SPR, Fab over captured mutant
T20 construct: not shown: C-terminal human IgG1-Fc tag

[21] = target: T21, hIGF-1R-Fc mutant SD103 (D461A, V462T) (human, UniProt P08069 31-933); assay: SPR, Fab over captured mutant
T21 construct: not shown: C-terminal human IgG1-Fc tag

[22] = target: T22, hIGF-1R-Fc mutant SD108 (H480E) (human, UniProt P08069 31-933); assay: SPR, Fab over captured mutant
T22 construct: not shown: C-terminal human IgG1-Fc tag

[23] = target: T23, hIGF-1R-Fc mutant SD113 (E570A, I571T) (human, UniProt P08069 31-933); assay: SPR, Fab over captured mutant
T23 construct: not shown: C-terminal human IgG1-Fc tag

[24] = target: T24, hIGF-1R-Fc mutant SD104 (H464A) (human, UniProt P08069 31-933); assay: SPR, Fab over captured mutant
T24 construct: not shown: C-terminal human IgG1-Fc tag

B1: M13-C06 Fab (Fab, V domains shown)
VH: EVQLLESGGGLVQPGGSLRLSCAASGFTFSIYRMQWVRQAPGKGLEWVSGISPSGGTTWYADSVKGRFTISRDNSKNTLYLQMNSLRAEDTAVYYCARWSGGSGYAFDIWGQGTMVTVSS
VL: DIQMTQSPLSLSASVGDRVTITCQASRDIRNYLNWYQQKPGKAPKLLIYDASSLQTGVPSRFGGSGSGTDFSFTIGSLQPEDIATYYCQQFDSLPHTFGQGTKLEIK
notes: Human Fab from a phage library, kappa light chain
Biacore Relative RUmax [1]: 1.5
Biacore Relative RUmax [2]: 1.7
Biacore Relative RUmax [3]: 0.6
Biacore Relative RUmax [4]: 2
Biacore Relative RUmax [5]: 0.8
Biacore Relative RUmax [6]: 0.9
Biacore Relative RUmax [7]: 0.7
Biacore Relative RUmax [8]: 1.7
Biacore Relative RUmax [9]: 2
Biacore Relative RUmax [10]: 0.6
Biacore Relative RUmax [11]: 1.3
Biacore Relative RUmax [12]: 0.8
Biacore Relative RUmax [13]: 1.9
Biacore Relative RUmax [14]: 0.3
Biacore Relative RUmax [15]: 1.2
Biacore Relative RUmax [16]: 0.6
Biacore Relative RUmax [17]: 1
Biacore Relative RUmax [18]: 1.8
binding result [19]: no binding (tested: 10 nM)
binding result [20]: no binding (tested: 10 nM)
binding result [21]: no binding (tested: 10 nM)
binding result [22]: no binding (tested: 10 nM)
binding result [23]: no binding (tested: 10 nM)
binding result [24]: no binding (tested: 10 nM)

Reference: US20090291088A1 (Biogen, published 2009)
